According to the supplement of paper PMC6757056:
± gives the standard deviation of the averaged measurements.

B1: library; a variant is named by its letters at N, in order (parent)
chain: GCUGUCACCGGUGUAUUACCCUAGUGGUCGACCGGUCUGAUGAGUCUNNNNNNAGACGAAACAGC

What was measured:
hypoxanthine [1] = variants of: B1; test: FACS-Seq fitted mean relative fluorescence mCherry/BFP without ligand (log10 relative fluorescence); ligand: hypoxanthine (xanthine aptamer); higher = higher reporter protein expression; details: HEK293T, ligand present: no
How it was run: (§1)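 Fluorescence values are fitted normal means of bin counts along the mCherry/BFP axis. HEK293T libraries lentivirally carrying the ribozyme switch in an mCherry reporter, with an EF1α-BFP marker, were enriched, exposed to ligand or not for 48 h, and sorted into 6 bins. Genomic DNA per bin was PCR-amplified, barcoded and run on MiSeq. Means of log10(mCherry/BFP) were scaled to five spiked-in control ribozymes.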

hypoxanthine [2] = variants of: B1; test: normalized RNA/DNA level with ligand (relative to sTRSVctl = 100) (log10 (% of sTRSVctl)); ligand: hypoxanthine (xanthine aptamer); higher = less ribozyme self-cleavage, higher mRNA level; details: ligand concentration (+) RNA-Seq: 5 mM, HEK293T, reporter: mCherry (pCS4076), ligand present: yes
How it was run: (§2)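 HEK293T cells were transfected with library plasmids carrying ribozyme switches linked to an mCherry reporter, or an eGFP reporter in some ligand experiments, at 4 µg per well of a 6-well plate, with any ligand added 1 h beforehand. After 72 h, total RNA was extracted with EDTA, reverse-transcribed, amplified, barcoded and sequenced. RNA level was defined as RNA reads over DNA reads, normalized to a spiked-in non-cleaving sequence or to the top-ranked sequences. That value was multiplied by 100 and converted to log10, the top set was 25 sequences, and only sequences with ≥100 DNA reads were retained.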

hypoxanthine [3] = variants of: B1; test: normalized RNA/DNA level without ligand (relative to sTRSVctl = 100) (log10 (% of sTRSVctl)); ligand: hypoxanthine (xanthine aptamer); higher = less ribozyme self-cleavage, higher mRNA level; details: HEK293T, reporter: mCherry (pCS4076), ligand present: no
How it was run: as §2

hypoxanthine [4] = variants of: B1; test: FACS-Seq fitted mean relative fluorescence mCherry/BFP with ligand (log10 relative fluorescence); ligand: hypoxanthine (xanthine aptamer); ligand concentration (+) FACS-Seq: 5 mM; higher = higher reporter protein expression; details: HEK293T, ligand present: yes
How it was run: as §1

| Variant | FACS-Seq fitted mean (log10) (hypoxanthine [1]) | normalized RNA/DNA level with ligand (log10) (hypoxanthine [2]) | normalized RNA/DNA level without ligand (log10) (hypoxanthine [3]) | FACS-Seq fitted mean (log10) (hypoxanthine [4]) |
| --- | --- | --- | --- | --- |
| GCUGUCACCGGUGUAUUACCCUAGUGGUCGACCGGUCUGAUGAGUCUGGAAUGAGACGAAACAGC | -0.159 ± 0.068 | 1.842 ± 0.0069 | 1.34 ± 0.03 | -0.507 ± 0.2 |
| GCUGUCACCGGUGUAUUACCCUAGUGGUCGACCGGUCUGAUGAGUCUAGAAUGAGACGAAACAGC | -0.0981 ± 0.019 | 1.86 ± 0.034 | 1.42 ± 0.058 | -0.0321 ± 0.076 |
| GCUGUCACCGGUGUAUUACCCUAGUGGUCGACCGGUCUGAUGAGUCUGGAAUUAGACGAAACAGC | 0.904 ± 0.078 | 1.955 ± 0.011 | 1.89 ± 0.045 | 0.815 ± 0.039 |
| GCUGUCACCGGUGUAUUACCCUAGUGGUCGACCGGUCUGAUGAGUCUGGACAAAGACGAAACAGC | 0.0221 ± 0.17 | 1.89 ± 0.02 | 1.76 ± 0.028 | 0.0902 ± 0.07 |
| GCUGUCACCGGUGUAUUACCCUAGUGGUCGACCGGUCUGAUGAGUCUAGACAAAGACGAAACAGC | 0.177 ± 0.019 | 1.89 ± 0.049 | 1.74 ± 0.053 | 0.0293 ± 0.022 |
| GCUGUCACCGGUGUAUUACCCUAGUGGUCGACCGGUCUGAUGAGUCUCGACACAGACGAAACAGC | -0.0307 ± 0.0086 | 1.938 ± 0.0063 | 1.75 ± 0.039 | 0.154 ± 0.057 |
| GCUGUCACCGGUGUAUUACCCUAGUGGUCGACCGGUCUGAUGAGUCUGGACACAGACGAAACAGC | 0.562 ± 0.091 | 1.9 ± 0.097 | 1.71 ± 0.022 | 0.59 ± 0.014 |
| GCUGUCACCGGUGUAUUACCCUAGUGGUCGACCGGUCUGAUGAGUCUUGACACAGACGAAACAGC | 0.161 ± 0.17 | 1.93 ± 0.03 | 1.84 ± 0.064 | 0.132 ± 0.059 |
| GCUGUCACCGGUGUAUUACCCUAGUGGUCGACCGGUCUGAUGAGUCUUGACAGAGACGAAACAGC | 0.5894 ± 0.0055 | 1.93 ± 0.043 | 1.66 ± 0.064 | 0.556 ± 0.022 |
| GCUGUCACCGGUGUAUUACCCUAGUGGUCGACCGGUCUGAUGAGUCUAGACAGAGACGAAACAGC | 0.418 ± 0.037 | 1.82 ± 0.053 | 1.391 ± 0.011 | 0.565 ± 0.052 |
| GCUGUCACCGGUGUAUUACCCUAGUGGUCGACCGGUCUGAUGAGUCUAGACAUAGACGAAACAGC | 0.502 ± 0.023 | 1.907 ± 0.0038 | 1.755 ± 0.0087 | 0.538 ± 0.036 |
